This passage reports binding signal (fold stronger than K65R) results from PMC3695782.

This series addresses HIV-1 reverse transcriptase WT (Human immunodeficiency virus type 1) (UniProt P04585+P04585). Description: EMSA. As to conditions: EFdA-MP at primer 3' end; Footprinting: 120 mM sodium cacodylate pH 7, 20 mM NaCl, 6 mM MgCl2, 1 uM EFdA-TP, 7 min pre-incubation with dTTP, then 1 mM ammonium iron sulfate 5 min ….

In turn, T/P-EFdA-MP (gel shift) returned a binding signal (fold stronger than K65R) of 1.3.
